Assay results published in a protein production outcome set (Wang et al. 2014).

Assay: label from the status in PepcDB records

Sequence | protein production
MENVKKCKNFLSTLIKLASSGKQSTETAANVKELVQNLLDGKIEAEDFTSRLYRELNSSPQPYLVPFLKRSLPALRQLTPDSAAFI | failed
MEPANMTVAEYLNYWLDTYPKNNVAPSTYRRYTEFAAHIKTHIGGIMMPKLKPAHIQSFYSSLLEKNLSKSTVLKIHRMLHLALKHAVNWQIIISNPTDAVTLEHHHHHH | failed
MEPISARSMISAAATEAVVASGDGAPRVERRKRLSPAALAVANQKVPPAFSPIVIAGSVRLADFLVIAAVGIALYFALVVRRDGFAWEYIAAILGTTATAVVAFQAADLYEVQLFRGTLKQMTRIISTWSIVFLLFIGASFFAKLGGEVSRLWLGSFFFAGLALLIIERLSVRALVRRWASQGRLDRRTVIVGADANGAKLIEALKAEHADASDIRILGVFDDRNDARSQSTCAGVPKLGKVDDIPEFARRTRVDLVLFALPISAETRILDMLKKLWVLPVDIRLSAHTNKLRFRPRAYSYVGKVPTLDVFEAPITDWDQVIKQVFDRVVGGFILLLAAPVMALVALAIKLDSPGPVLFRQKRFGFNNERIDVLKFRSMYHDQADPTASKVVTRNDPRVTRVGRFIRRTSLDELPQLFNVVFKGNLSLVGPRPHAVQGKLQSQLFDEAVDGYFARHRVKPGITGWAQINGWRGEIDNEEKIQKRVEFDLYYIENWSVLFDLYILLRTPWALLKGENAY | failed
MEPITQAFAQQFSREWIDAWNAHDLDAILSHYADGFEMSSPMIVQIAGEPSGRLRGKEQVGAYWREALRMIPDLHFEWIATLAGVDSVAIHYRGAKGRLALEVFHFGPDRRVVKALAHYAG | not failed
MEPKDTTTNDAFKGFTNTACPFLPCHKGVKREFNCLFCYCPLIAYECPGPYQVYTDKNGLTRKDCTNCTLPHDGYLASWNFIQKWLERPVIWSGAAQTTPPTRRPGRAPGDGDEELEHHHHHH | not failed
MEPLGNRRPCSVCITKNRNCPRFCEYAEYFPYELQSQYESANELFGTPNIITMMQHAPEEKKQMLATSIIMEGNAWTEDPISGGFGMIQKLMWKIMLHKAYLRELQEKIKEEKEKKPASSLY | failed
MEPLTALAQSLGLAFASGISAYAAAAFVGLAGHLGWIGPLPGALGVLTDPWVFGTAGALALVEALAMLVPGIATAWEAIHTAIRPFAAAALAVLATWGEPRLAVVAALLGGALGLATHATKLGLRATIDTSPEPVTNAAATTGELGVVAALAWAIWAHPWIALAAALVLLTALLYVVRALWRTVARAIAALFSPPTAPGS | failed
MEPQEEFITTEEVEQEIVPTVEVEQDVPVDIEGENDDDDEMMNDDEEALEVDMSNNSLTYFDKHTDSVFAIGHHPNLPLVCTGGGDNLAHLWTSHSQPPKFAGTLTGYGESVISCSFTSEGGFLVTADMSGKVLVHMGQKGGAQWKLASQMQEVEEIVWLKTHPTIARTFAFGATDGSVWCYQINEQDGSLEQLMSGFVHQQDCSMGEFINTDKGENTLELVTCSLDSTIVAWNCFTGQQLFKITQAEIKGLEAPWISLSLAPETLTKGNSGVVACGSNNGLLAVINCNNGGAILHLSTVIELKPEQDELDASIESISWSSKFSLMAIGLVCGEILLYDTSAWRVRHKFVLEDSVTKLMFDNDDLFASCINGKVYQFNARTGQEKFVCVGHNMGVLDFILLHPVANTGTEQKRKVITAGDEGVSLVFEVPN | failed
MEPSGGEQEPGAVRFLDLPWEDVLLPHVLNRVPLRQLLRLQRVSRAFRSLVQLHLAGLRRFDAAQVGPQIPRAALARLLRDAEGLQELALAPCHEWLSDEDLVPVLARNPQLRSVALGGCGQLSRRALGALAEGCPRLQRLSLAHCDWVDGLALRGLADRCPALEELDLTACRQLKDEAIVYLAQRRGAGLRSLSLAVNANVGDAAVQELARNCPELHHLDLTGCLRVGSDGVRTLAEYCPVLRSLRVRHCHHVAESSLSRLRKRGVDIDVEPPLHQALVLLQDMAGFAPFVNLQV | not failed
MEPTGLMVAAPTASLPEAIGGERNWDYRFTWIRDTAYVIEALSSIGYKYEATEFLYDMMDMITRDNRIRTIYSIDDSNDLEERIIDYEGYRGSRPVRIGNKAVDQLQIDQYGSIVRAIHSMAKAGGIVNSYLWDFVEQVMAKIEYLWKYPDSSIWEFRTEPKQYVYSKVMSWAAFDSAISMAKDLGLSAPIKQWKSIQDEIKKEVLEKGFDTDTNSFVQYYGSKNIDAALLRLPILGFIPANDEKFLGTLSRIEKELMVDGYLFKRYREDDGLKGDEGSFLMLTFWYIEDLILMKRLKKAREVLESVLEKANHLGLYSEEIDEKSGDFLGNFPQALSHLGVIRVAPKLEEALLLEHHHHHH | failed
MEQGAATADKEDFNARGKPTLFQLSFPLLLHSLLSFFVNLADTAIISAYSAEAAAAVAVAKQVMMIAFELSGLVGIGAVIVISRHLGRGEVEAARQVVAVALLTNTLVGLALGLSLMVAGPLVLEQLAGSTSLNDEAGLYLNIVAVGMVFNGFIAAGLACLRAFGHSRLILAFGVGVSAFYLLAEWVLILGVGPLPGMGVKGAALGTFSIRVMTTAILTPVLMWKLGLRFSFSDTVARFATARRMIAIALPSVTDYIAYSFYQIILLGLVARFGVEAVLGRTYTMLAMAFLIVVVMAISQSNEVLIGYRFGERRLEAATSQALRSASLAAAATTSIATLIWLASVPYIRLFTDNPAVIELCGSLLFLTIFIQPGFAFNTILFQSLRAVGDVRWPVFVSLTVTWGLGLSTAWFFCLFLNLGVTGVWLSLIIEETVKGSLFLHRWLSRGVRHEAG | failed
MEQQHPTIHTLKIETEFFKAVKERRKTFEIRKNDRNFQVGDILILEEYMNGMYLDDECEAEVIYITDYAQREGYVVLGIELH | not failed
MEQRLLNANERSTYGKNAAVKMRKAGRIPAVMYDRHGKSVPIDVDEREFMKLFKLVTESTIVTLNAAGKDYEVFIKDFQHDIVSDKIKHIDFYEVERGKTLRTKVKIRLEGSPEGVRHGGILETGITELELECLPKDLPARIIVDVSALDVNQSLHVRDIKLPEAVTVLTSDDITVAAIKFAAAESTTPAATEGEETEAAAAAPEPAAEDK | failed
MEQTHLKYEQLKAILREMGSVLVAFSGGVDSTFLLRVAHGLLGDKAVAFTATSPTYPESEFREAVGLARSMGARQVVVESNELEIPGFAFNPRNRCYHCKKELFGLCGRTAAELGLAWVADGSNCDDLDDYRPGRAAAGELGVRSPLVEAGLTKADIRELSRELGLPTWDKQAFACLSSRFPYGTEITPERLRMVGACEEFLRENGFRVYRVRFHGDTARIETAPEEIPRLFDPSLRLRIAAFFREAGFAHVAVDLEGYRTGSMNTDAG | failed
MEQTQQNHFTALFYKNVLLGILSMAAQSIFILADTFFIANGIGTEALAGLNIVLPLVNIINGLGWMFGVGGATLFSTTVAQKEIKKANQYFSLTIGLVFVIGRLFTLVSLIFSDQIIRGLQGTGVLFGLAKEYYMIYLSCSLLFILNNCLITFLRNDHNPRLATIAFVSGGIVNIILDYVFIYQFGWGMAGAAIATVMSPLTSLILITLHKWSPQRVLRFEKFKVKFQDVREIMSIGFSSFLNEFSSAFVMFLFNIVLLNLVGHVAISAYAIVANLNIIVIAIFTGIGQGAQPLLSRYYGLGETKVLRKFVKLSFITYLVAGFLFFLISQVFTGQIIEVFNSEGNDQLAQIARTAIRLYAISFLFTGLNFMGIYYFSAVRKPKMALMISSLRGFFLIVPVLFILVKLLGLTGVWLAMPVVEFVTFGLMLVGYLAYRNYLKKREAVT | failed
MEQWDHFHNQQEDTDSCSESVKFDARSMTALLPPNPKNSPSLQEKLKSFKAALIALYLLVFAVLIPLIGIVAAQLLKWETKNCSVSSTNANDITQSLTGKGNDSEEEMRFQEVFMEHMSNMEKRIQHILDMEANLMDTEHFQNFSMTTDQRFNDILLQLSTLFSSVQGHGNAIDEISKSLISLNTTLLDLQLNIENLNGKIQENTFKQQEEISKLEERVYNVSAEIMAMKEEQVHLEQEIKGEVKVLNNITNDLRLKDWEHSQTLRNITLIQGPPGPPGEKGDRGPTGESGPRGFPGPIGPPGLKGDRGAIGFPGSRGLPGYAGRPGNSGPKGQKGEKGSGNTLTPFTKVRLVGGSGPHEGRVEILHSGQWGTICDDRWEVRVGQVVCRSLGYPGVQAVHKAAHFGQGTGPIWLNEVFCFGRESSIEECKIRQWGTRACSHSEDAGVTCTL | failed
MEQYSEACIEACIDCMKACNHCFTKCLEESVQHHLSGCIRLDRECADICALAVKAMQTDSPFMKEICALCADICEACGTECGKHDHDHCQACAKACFTCAEQCRSMAALEHHHHHH | failed
